The data set deals with Factor X, P00742.

For orientation: KM means the concentration of substrate that gives half-maximal velocity. What is called kcat/KM is the second-order rate constant that governs catalysis at low substrate concentration.

Sequence of Factor X, P00742 (P00742 whole entry, looked up): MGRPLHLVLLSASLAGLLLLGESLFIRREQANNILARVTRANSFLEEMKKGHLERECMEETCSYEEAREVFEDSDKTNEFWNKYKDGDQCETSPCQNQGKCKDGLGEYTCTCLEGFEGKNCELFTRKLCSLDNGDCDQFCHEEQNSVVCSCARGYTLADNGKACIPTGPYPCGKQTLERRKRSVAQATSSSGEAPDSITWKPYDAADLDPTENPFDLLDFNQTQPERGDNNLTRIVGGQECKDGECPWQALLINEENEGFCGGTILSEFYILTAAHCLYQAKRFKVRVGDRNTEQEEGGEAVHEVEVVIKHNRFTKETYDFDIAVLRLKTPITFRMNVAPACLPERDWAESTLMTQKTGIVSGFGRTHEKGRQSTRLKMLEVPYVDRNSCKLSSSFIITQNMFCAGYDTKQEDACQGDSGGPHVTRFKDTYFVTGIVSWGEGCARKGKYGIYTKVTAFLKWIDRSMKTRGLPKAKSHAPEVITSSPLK

B1: FIXa-Y155F/R338E/T343R/R403E/E410S (protein)
chain 1: not shown
chain 2: not shown
Consider B1, for which the KM is 0.0239 µM and the kcat/KM worked out at 2.9e+08 M⁻¹ s⁻¹.

B2: FIXa-Y155F/K247N/N249S/T343R/R403E (protein)
chain 1: not shown
chain 2: not shown
Take B2: the KM worked out at 0.0596 µM and the specificity constant (kcat/KM) worked out at 8.5e+07 M⁻¹ s⁻¹.

B3: FIXa-Y155F/K247N/N249S/R318Y/E410N (protein)
chain 1: not shown
chain 2: not shown
On to B3, for which the “% of WT kcat/KM” value amounted to 155%, the KM came out at 0.0488 µM and the kcat/KM stood at 7.2e+07 M⁻¹ s⁻¹.

B4: FIXa-Y155F/K247N/N249S/R318Y/R338E/T343R/R403E (protein)
chain 1: not shown
chain 2: not shown
As for B4, the Michaelis constant (KM) was 0.0365 µM and the kcat/KM was determined as 2.9e+08 M⁻¹ s⁻¹.

B5: FIXa-K247N/N249S/R318Y/R338E/T343R/R403E (protein)
chain 1: not shown
chain 2: not shown
B5: the KM was determined as 0.0284 µM and the kcat/KM amounted to 4.1e+08 M⁻¹ s⁻¹.

B6: FIXa-Y155F/K247N/N249S/R318Y/T343R (protein)
chain 1: not shown
chain 2: not shown
For the protein B6, the “% of WT kcat/KM” value came out at 549%, the KM worked out at 0.0421 µM and the kcat/KM amounted to 2.5e+08 M⁻¹ s⁻¹.

B7: FIXa-Y155F/K247N/N249S/R338E/T343R/R403E/E410N (protein)
chain 1: not shown
chain 2: not shown
Regarding B7, the KM was 0.0264 µM and the catalytic efficiency (kcat/KM) was determined as 3.7e+08 M⁻¹ s⁻¹.

B8: FIXa-Y155F/K247N/N249S/R318Y/R403E (protein)
chain 1: not shown
chain 2: not shown
For the protein B8, the “% of WT kcat/KM” value amounted to 34%, the KM amounted to 0.109 µM and the specificity constant (kcat/KM) is 1.6e+07 M⁻¹ s⁻¹.

B9: FIXa-Y155F/N260S/R338E/T343R/R403E (protein)
chain 1: not shown
chain 2: not shown
Consider B9, for which the Michaelis constant (KM) was 0.0692 µM and the kcat/KM worked out at 9.4e+07 M⁻¹ s⁻¹.

B10: FIXa-Y155F/K247N/N249S/R318Y/R338E (protein)
chain 1: not shown
chain 2: not shown
On to B10, for which the “% of WT kcat/KM” value amounted to 632%, the KM amounted to 0.0263 µM and the kcat/KM amounted to 2.9e+08 M⁻¹ s⁻¹.

B11: FIXa-Y155F/I251S/R338E/T343R/R403E (protein)
chain 1: not shown
chain 2: not shown
Consider B11, for which the Michaelis constant (KM) was 0.0196 µM and the specificity constant (kcat/KM) came out at 3e+08 M⁻¹ s⁻¹.

B12: FIXa-R318Y/R338E/T343R/R403E/E410S (protein)
chain 1: not shown
chain 2: not shown
Consider B12, for which the Michaelis constant (KM) was 0.019 µM and the kcat/KM turned out to be 4.4e+08 M⁻¹ s⁻¹.

B13: FIXa-K247N/N249S/R338E/T343R/R403E/E410N (protein)
chain 1: not shown
chain 2: not shown
With B13, the “% of WT kcat/KM” value stood at 930%, the Michaelis constant (KM) turned out to be 0.0251 µM and the catalytic efficiency (kcat/KM) was 4.3e+08 M⁻¹ s⁻¹.

Values taken from US11491212.
